This note sets out measurements from patent publication US6458943 (INSTITUT NATIONAL DE LA SANTE ET DE LA RECHERCHE MEDICALE, dated 2002).

Sequences and labels used below:
B4: hD52 bait (GAL4 DNA-binding domain fusion, pAS2-1hD52) (other)
chain: MKLLSSIEQACDICRLKKLKCSKEKPKCAKCLKNNWECRYSPKTKRSPLTRAHLTEVESRLERLEQLFLLIFPREDLDMILKMDSLQDIKALLTGLFVQDNVNKDAVTDRLASVETDMPLTLRQHRISATSSSEESSNKGQRQLTVSMDRGEQGLLRTDPVPEEGEDVAATISATETLSEEEQEELRRELAKVEEEIQTLSQVLAAKEKHLAEIKRKLGINSLQELKQNIAKGWQDVTATSAYKKTSETLSQAGQKASAAFSSVGSVITKKLEDVKNSPTFKSFEEKVENLKSKVGGTKPAGGDFGEVLNSAANASATTTEPLPEKTQESL
notes: Fusion expressed in yeast; also called full-length hD52 bait

In assay [1] the target is B4. In words: yeast two-hybrid, retransfection of Hf7c. The method, then: (§1) Transformants were plated onto solid SD/-His-Trp-Leu (incorporating 35 mM 3-AT in the case of Y190 transformants) and incubated for up to 14 days at 30° C. After 3 initial days of growth, plates were inspected daily, and His+ colonies were transferred to SD/-His-Trp-Leu +0.07 M potassium phosphate pH 7+40 µg/ml X-gal plates which incorporated 35 mM 3-AT in the case of Y190 co-transformants. Colonies which remained His+, and in the case of Y190 co-transformants, were also lacZ+, were re-streaked onto fresh plates to check that all colonies were of uniform phenotype. After 6 days incubation at 30° C., yeast colonies were directly harvested, and plasmid DNA was isolated and used to transfect XL1 Blue. Mini-preparations of plasmid DNA were performed for at least 5 XL1 Blue colonies per transfection, with the results of restriction digests differentiating potential interactors from bait plasmids. […] Phenotypes of resulting co-transfectants were assayed quantitatively and/or qualitatively as described above.

Assay [2] has as its target T1, hD53 interactor (GAL4 activation domain fusion, pACT2hD53) (human, UniProt P04386 768-881 (Saccharomyces cerevisiae entry)).
T1 construct: range 768-881
T1 sequence: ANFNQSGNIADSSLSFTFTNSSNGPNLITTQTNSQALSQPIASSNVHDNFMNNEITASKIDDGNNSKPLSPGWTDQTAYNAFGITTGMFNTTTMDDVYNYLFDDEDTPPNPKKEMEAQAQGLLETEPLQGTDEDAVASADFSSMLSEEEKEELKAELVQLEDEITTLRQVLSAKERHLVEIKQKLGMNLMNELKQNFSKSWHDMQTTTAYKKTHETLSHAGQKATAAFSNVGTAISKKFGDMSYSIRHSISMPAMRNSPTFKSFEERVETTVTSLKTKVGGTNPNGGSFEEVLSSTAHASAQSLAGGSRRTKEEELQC
In words: yeast two-hybrid, Y190 co-transfectants, HIS3/lacZ reporters; interactor (GAL4-AD fusion) against bait (GAL4-DB fusion). The method, then: (§2) Interactions between baits and interactors were assessed by qualitatively and/or quantitatively determining HIS3 and/or lacZ reporter gene activity in Y190 co-transfectants.
(§3) Interactions between D52-like proteins within the yeast two-hybrid system, as measured by quantitative β-galactosidase assays. […] Three (or two*) colonies from each co-transfected Y190 strain were cultured in the absence of histidine, and assayed separately for β-galactosidase activity (see Methods). The mean number of β-galactosidase activity units obtained for each co-transfection is presented, ± the standard error.

Assay [3] addresses T2, hD52 interactor (GAL4 activation domain fusion, pAD-GAL4hD52) (human, UniProt P04386 761-881 (Saccharomyces cerevisiae entry)).
T2 construct: range 761-881; also called hD52^c
T2 sequence: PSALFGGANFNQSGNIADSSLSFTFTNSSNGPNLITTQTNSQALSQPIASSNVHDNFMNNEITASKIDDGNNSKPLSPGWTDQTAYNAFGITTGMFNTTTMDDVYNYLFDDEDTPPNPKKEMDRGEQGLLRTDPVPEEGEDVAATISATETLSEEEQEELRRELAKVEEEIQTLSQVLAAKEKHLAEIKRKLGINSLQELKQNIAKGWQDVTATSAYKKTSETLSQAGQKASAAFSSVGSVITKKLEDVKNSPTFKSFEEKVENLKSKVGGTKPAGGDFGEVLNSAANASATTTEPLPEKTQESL
The assay is described as above. The method, then:
as §2, §3

Assay [4] deals with T3, hD54-ins2 interactor (GAL4 activation domain fusion, pACT2hD54-ins2) (human, UniProt P04386 768-881 (Saccharomyces cerevisiae entry)).
T3 construct: range 768-881
The assay is described as above. Here is the method:
as §2, §3

The target of assay [5] is T4, mD52(1-163) interactor (GAL4 activation domain fusion, pACT2mD52(1-163)) (mouse, UniProt P04386 768-881 (Saccharomyces cerevisiae entry)).
T4 construct: range 768-881
T4 sequence: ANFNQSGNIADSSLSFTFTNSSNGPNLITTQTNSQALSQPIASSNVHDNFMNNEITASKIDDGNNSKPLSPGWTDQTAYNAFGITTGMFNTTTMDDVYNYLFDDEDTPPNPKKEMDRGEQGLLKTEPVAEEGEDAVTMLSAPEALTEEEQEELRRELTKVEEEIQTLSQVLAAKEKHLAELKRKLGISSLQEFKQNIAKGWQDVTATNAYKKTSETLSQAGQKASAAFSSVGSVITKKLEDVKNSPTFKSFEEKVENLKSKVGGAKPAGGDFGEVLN
Described as above. Here is the method:
as §2, §3

Assay [6] deals with T5, hD54+ins2 interactor (GAL4 activation domain fusion, pACT2hD54+ins2) (human, UniProt P04386 768-881 (Saccharomyces cerevisiae entry)).
T5 construct: range 768-881
Described as above. Here is the method: as §2, §3

Assay [7] deals with T1, hD53 interactor (GAL4 activation domain …). As to the kind of experiment: yeast two-hybrid in Y190, β-galactosidase assay. Here is the method: Interactions between baits and interactors were assessed by qualitatively and/or quantitatively determining HIS3 and lacZ reporter gene activity in Y190 co-transfectants. Reporter gene activities were assessed qualitatively by observing the growth and color development of Y190 co-transfectants on solid SD media lacking His, Trp and Leu (SD/-His-Trp-Leu), and incorporating 0.07 M potassium phosphate pH 7, 35 mM 3-AT, and 40 µg/ml X-gal. For quantitative assessment of interactions, β-galactosidase activity was measured using the substrate o-nitrophenyl β-D-galactopyranoside (ONPG) in liquid cultures (SD/-His-Trp-Leu +35 mM 3-AT) of Y190 co-transfectants.

The target in assay [8] is T6, histidyl t-RNA synthetase library interactor (pAD-GAL4 construct, EBML accession no. Z 11518) (human, UniProt P04386 761-881; P12081 2-509, limits assumed).
T6 construct: False positive of the Hf7c screen
T6 sequence (looked up): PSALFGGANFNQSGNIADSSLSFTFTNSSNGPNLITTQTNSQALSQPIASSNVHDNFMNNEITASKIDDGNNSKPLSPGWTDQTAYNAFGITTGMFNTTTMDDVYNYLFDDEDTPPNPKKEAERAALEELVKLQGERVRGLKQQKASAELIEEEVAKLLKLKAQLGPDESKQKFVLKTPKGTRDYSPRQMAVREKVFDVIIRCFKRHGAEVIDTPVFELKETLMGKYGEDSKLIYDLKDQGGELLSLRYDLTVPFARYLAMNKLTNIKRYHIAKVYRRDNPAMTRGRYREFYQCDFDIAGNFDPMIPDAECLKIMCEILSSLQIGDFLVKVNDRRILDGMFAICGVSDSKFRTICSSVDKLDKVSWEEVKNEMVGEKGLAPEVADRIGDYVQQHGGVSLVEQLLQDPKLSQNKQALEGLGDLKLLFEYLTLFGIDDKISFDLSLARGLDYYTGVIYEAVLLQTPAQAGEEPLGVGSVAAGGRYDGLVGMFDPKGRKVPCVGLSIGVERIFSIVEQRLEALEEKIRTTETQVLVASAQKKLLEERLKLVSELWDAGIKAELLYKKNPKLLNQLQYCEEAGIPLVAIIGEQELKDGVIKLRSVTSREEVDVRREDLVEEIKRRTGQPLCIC
In words: yeast two-hybrid, retransfection of Hf7c. The method, then: as §1

Assay [9] has as its target T7, eukaryotic initiation factor 4AII library interactor (pAD-GAL4 construct, DNA Database of Japan accession no. … (human, UniProt P04386 761-881; Q14240 1-407, limits assumed).
T7 construct: False positive of the Hf7c screen
As to the kind of experiment: yeast two-hybrid, retransfection of Hf7c. The method, then:
as §1

Assay [10] concerns the target T8, hD53 bait (GAL4 DNA-binding domain fusion, pAS2-1hD53) (human, UniProt P04386 1-147 (Saccharomyces cerevisiae entry)).
T8 construct: Fusion expressed in yeast; also called full-length hD53 bait
In words: yeast two-hybrid screening of a human breast carcinoma cDNA library in Y190 (His+ lacZ+).

Assay [11] has as its target B4. As to the kind of experiment: yeast two-hybrid screening of a human breast carcinoma cDNA library in Hf7c (His+). Here is the method: as §1

B1: RING10 proteasome subunit library interactor (pAD-GAL4 construct, GenBank accession no. X62598) (other, UniProt P04386 761-881, looked up)
chain: PSALFGGANFNQSGNIADSSLSFTFTNSSNGPNLITTQTNSQALSQPIASSNVHDNFMNNEITASKIDDGNNSKPLSPGWTDQTAYNAFGITTGMFNTTTMDDVYNYLFDDEDTPPNPKKETTTLAFKFQHGVIAAVDSRASAGSYISALRVNKVIEINPYLLGTMSGCAADCQYWERLLAKECRLYYLRNGERISVSAASKLLSNMMCQYRGMGLSMGSMICGWDKKGPGLYYVDEHGTRLSGNMFSTGSGNTYAYGVMDSGYRPNLSPEEAYDLGRRAIAYATHRDSYSGGVVNMYHMKEDGWVKVESTDVSDLLHQYREANQ
notes: False positive of the Hf7c screen
Turning to B1, the binding result in [1] is “no binding”.

B2: mD52 bait (GAL4 DNA-binding domain fusion, pAS2-1mD52) (other, not shown: small tags and cut ends)
chain: MDRGEQGLLKTEPVAEEGEDAVTMLSAPEALTEEEQEELRRELTKVEEEIQTLSQVLAAKEKHLAELKRKLGISSLQEFKQNIAKGWQDVTATNAYKKTSETLSQAGQKASAAFSSVGSVITKKLEDVKNSPTFKSFEEKVENLKSKVGGAKPAGGDFGEVLNSTANATSTMTTEPPPEQMTESP
notes: Fusion expressed in yeast; also called full-length mD52 bait
In the case of B2, the binding result in assay [2], in assay [3], in assay [4], in assay [5] and in [6] was “binds” each time.

B3: mD52(1-95) bait (GAL4 DNA-binding domain fusion, pAS2-1mD52(1-95)) (other)
chain: MKLLSSIEQACDICRLKKLKCSKEKPKCAKCLKNNWECRYSPKTKRSPLTRAHLTEVESRLERLEQLFLLIFPREDLDMILKMDSLQDIKALLTGLFVQDNVNKDAVTDRLASVETDMPLTLRQHRISATSSSEESSNKGQRQLTVSMDRGEQGLLKTEPVAEEGEDAVTMLSAPEALTEEEQEELRRELTKVEEEIQTLSQVLAAKEKHLAELKRKLGISSLQEFKQNIAKGWQDVTATNA
notes: also called N-terminal half of mD52
Consider B3, for which the binding result in assay [7] is recorded as “binds”.
For the molecule B4, the binding result in assay [8] and in [9] was “no binding” in each case.

B5: hD53 library interactor, pAD-GAL4 clone beginning at nt 204 of the hD53 cDNA (Leu9) (other)
chain: PSALFGGANFNQSGNIADSSLSFTFTNSSNGPNLITTQTNSQALSQPIASSNVHDNFMNNEITASKIDDGNNSKPLSPGWTDQTAYNAFGITTGMFNTTTMDDVYNYLFDDEDTPPNPKKELETEPLQGTDEDAVASADFSSMLSEEEKEELKAELVQLEDEITTLRQVLSAKERHLVEIKQKLGMNLMNELKQNFSKSWHDMQTTTAYKKTHETLSHAGQKATAAFSNVGTAISKKFGDMSYSIRHSISMPAMRNSPTFKSFEERVETTVTSLKTKVGGTNPNGGSFEEVLSSTAHASAQSLAGGSRRTKEEELQC
notes: range 761-881; The clone lacks hD53 residues 1-8 (starts at Leu9); Found with the hD53 bait in Y190 and with the hD52 bait in Hf7c; also called nt 204 (Leu^9)
B5: the binding result in assay [10] and in assay [11] was “binds” each time.

B6: hD52 library interactor, pAD-GAL4 clone beginning at nt 60 of the hD52 cDNA (<Met1) (other)
chain: PSALFGGANFNQSGNIADSSLSFTFTNSSNGPNLITTQTNSQALSQPIASSNVHDNFMNNEITASKIDDGNNSKPLSPGWTDQTAYNAFGITTGMFNTTTMDDVYNYLFDDEDTPPNPKKEMDRGEQGLLRTDPVPEEGEDVAATISATETLSEEEQEELRRELAKVEEEIQTLSQVLAAKEKHLAEIKRKLGINSLQELKQNIAKGWQDVTATSAYKKTSETLSQAGQKASAAFSSVGSVITKKLEDVKNSPTFKSFEEKVENLKSKVGGTKPAGGDFGEVLNSAANASATTTEPLPEKTQESL
notes: range 761-881; also called nt 60 (<Met^1)
With B6, the binding result in [11] is reported as “binds”.
